The source of these data is publication PMC9549855.

As usually defined, the stoichiometry N is the number of molecules, sites or subunits per partner or assembly.

The assay addresses T1, nucleocapsid protein (N) (vesicular stomatitis virus), P03521.
T1 chain: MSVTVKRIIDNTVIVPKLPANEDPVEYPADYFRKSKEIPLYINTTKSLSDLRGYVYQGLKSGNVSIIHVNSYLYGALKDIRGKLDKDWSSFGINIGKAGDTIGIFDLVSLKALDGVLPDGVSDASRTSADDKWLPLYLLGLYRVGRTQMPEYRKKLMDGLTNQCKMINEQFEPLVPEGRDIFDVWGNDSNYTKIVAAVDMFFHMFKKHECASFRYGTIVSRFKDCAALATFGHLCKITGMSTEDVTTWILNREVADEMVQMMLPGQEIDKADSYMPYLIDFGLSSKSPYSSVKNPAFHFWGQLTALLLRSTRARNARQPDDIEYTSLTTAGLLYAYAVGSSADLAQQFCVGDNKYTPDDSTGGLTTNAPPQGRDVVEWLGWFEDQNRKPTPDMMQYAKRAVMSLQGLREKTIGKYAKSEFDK
Description: cryo-EM structure. The following applies: remark: other sources report otherwise.

B1: matrix protein (M), P03519 1-229 (natural protein)
chain: MSSLKKILGLKGKGKKSKKLGIAPPPYEEDTSMEYAPSAPIDKSYFGVDEMDTYDPNQLRYEKFFFTVKMTVRSNRPFRTYSDVAAAVSHWDHMYIGMAGKRPFYKILAFLGSSNLKATPAVLADQGQPEYHTHCEGRAYLPHRMGKTPPMLNVPEHFRRPFNIGLYKGTIELTMTIYDDESLEAAPMIWDHFNSSKFSDFREKALMFGLIVEKKASGAWVLDSISHFK
Molecule B1 displayed a stoichiometry N of 2.
